Laboratory results from the supplement of paper PMC9170038.

Tested on: MS2 coat protein
Experiment: apparent KD of MS2 coat protein; designed switch direction (-1 OFF switch, 1 ON switch): -1; higher = weaker reporter binding
Method in brief: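 An oligonucleotide input, 200 uM small-molecule ligand, or no input was present during titration of SNAP-549-labelled MS2 coat protein, which was doubled from 0.7 or 1.5 nM to 3 µM. Designed RNA switches had been transcribed on Illumina chips by stalled E. coli RNA polymerase. Apparent KD per design is the median over clusters of curves fitted to normalised cluster fluorescence.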

[1] = input ligand: microRNA oligo, concentration not stated
[2] = Eterna round: R95, input ligand: microRNA oligo, concentration not stated

| Sequence | apparent KD of MS2 coat protein (input ligand: FMN 200 uM) [nM] | apparent KD of MS2 coat protein [1] [nM] | apparent KD of MS2 coat protein (input ligand: none) [nM] | apparent KD of MS2 coat protein [2] [nM] | apparent KD of MS2 coat protein (Eterna round: R95, input ligand: FMN 200 uM) [nM] | apparent KD of MS2 coat protein (Eterna round: R95, input ligand: none) [nM] |
| --- | --- | --- | --- | --- | --- | --- |
| GGAUAAAGUCGAGGAUAUACGCACCACUAACGAGUAGAAGGCGAACAUGAGGAUCACCCAUGUGAGUUCUCAAUAAGAAACACG [Prohibition 69 - Jieux - Exclusion NG 1] (Eterna round: R96, puzzle: Exclusion NG 1) | 54.1 | 26.1 | 37.1 |  |  |  |
| CGGAUGUUAGGAUAUUAGUAGUAGUCAGAAUAGACUAUUACUGAGAAGGAACAUGAGGAUCACCCAUGUUUCCG [Eli x4 4.19] (Eterna round: R97, puzzle: Exclusion 4) | 16.5 |  | 17.4 |  |  |  |
| CCUGCACAUGAGGAUCACCCAUGUCAGGAUAUCUCGCCGUCGGCUUGCCGACGGUAUUAGAGAAGGGACACGGG [JL Tixe mod 1] (puzzle: Exclusion 1) |  |  |  | 22 |  |  |
| ACUGGUCGAGGAUAUAUAUGACGUGCUUCGGCACGAAGAUCACAUGAGGAUCACCCAUGUAGAAGGCGACCAGU [E2/8-A2] (Eterna round: R97, puzzle: Exclusion 2) | 731 |  | 130 |  |  |  |
| UGAAGUAGAGGAUAUACGUGGAAAUAGAUUCAUGUUAAUCUACAUGAGGAUCACCCAUGUAGAAGGCUAUAGAU [JR_Ex2_Sub074] (Eterna round: R97, puzzle: Exclusion 2) | 69.3 |  | 24.3 |  |  |  |
| UUUUUUUUGCGAGGAUAUGCUUUUAGUAAGUUAGCAGAAGGCGCGUUACAUAGAACCUCUUCUUACAUGAGGAUCACCCAUGUU [JR_ExcNG1_Sub035] (Eterna round: R96, puzzle: Exclusion NG 1) | 95.6 | 56 | 61.9 |  |  |  |
| AUAAUUAGUUCAGGAUAUCAGCACGUUUAGUGCUGAGAAGGGAACAUGAGGAUCACCCAUGUGAUCAAUAUUAUAAUUUUAAUU [ENG1/12-B2] (Eterna round: R96, puzzle: Exclusion NG 1) | 210 | 754 | 1100 |  |  |  |
| GAGACACAUGAGGAUCACCCAUGUGAGGAUAUGCGAAGGACCAAAUUAAGAAUUAAAGGCAGAAGGCACAUAAA [Exclusion 1 V4] (puzzle: Exclusion 1) |  |  |  | 35.5 | 36.8 | 29.3 |
| UUAUUAAUUAAUAUUAUAAGAUCACAUGAGGAUCACCCAUGUCAGGAUAUCAGCUCGUUUAGAGCUGAGAAGGGACAAAUAAUA [ExNG3/15-B2] (Eterna round: R96, puzzle: Exclusion NG 3) | 118 | 187 | 189 |  |  |  |
| CUCUUGUUAGGAUAUCAAACCAGUGACGGAACCACUGGAAGUGAGAAGGGACAUGAGGAUCACCCAUGUAAGAA [Edraate] (puzzle: Exclusion 4) |  |  |  | 52.3 |  |  |
| CUAAAUCAUGUAGGAUAUGCGUGGCAAAGCUAUGCAGAAGGACAUGAGGAUCACCCAUGUGCUUCCGUCUGAGUACAGACGGUA [Mat - Exclusion NG 1 - Mod of JL - D22] (Eterna round: R96, puzzle: Exclusion NG 1) | 622 | 72.9 | 98.2 |  |  |  |
| CCGGAAAAGGAGGAUAUAGGAGUCGAUAGACACCUAGAAGGUCUGACAUGAGGAUCACCCAUGUGUCCUACCGG [Fiskers Ex 6 - 89] (puzzle: Exclusion 6) |  |  |  | 20.8 |  |  |
| AGAUUACAUGAGGAUCACCCAUGUCAGGAUAUCGACUGAACAGCUUCGGCUGUUCAGUCGAGAAGGGACAAUUA [Brourdxlusion 10 - Jieux - Exclusion 1] (Eterna round: R97, puzzle: Exclusion 1) | 122 |  | 59.7 |  |  |  |
| AUCGUGCAGCUUUGCUGUACGAGUACAUGAGGAUCACCCAUGUAGGAUAUGGUACGCUUUGCGUGCUAGAAGGAUAUGCGAUUU [EX ENG3 1.47] (Eterna round: R96, puzzle: Exclusion NG 3) | 31.4 | 23.9 | 34.6 |  |  |  |
| UCAUGUUAGCAGGAUAUGCUAUUUAUUUUUUAUGCAGAAGGGCUUACAUGAGGAUCACCCAUGUAUUAAGUUUU [JR_E6_Sub074] (puzzle: Exclusion 6) |  |  |  | 115 |  |  |
| UUCAGUCAUCCUUAUUGUUACAUGAGGAUCACCCAUGUUUGUUUAAUUAAGUUUUGUAAGUUUGUUGUUCGUUUUAU [JR_STOV1_v2_Sub074] (Eterna round: R97, puzzle: Sensor, turn-off variant 1) | 154 |  | 173 |  |  |  |
| GUCUAACAUGAGGAUCACCCAUGUCAGGAUAUGCGAAUUUCAUCAAAAGAUGAAAUUUGCAGAAGGGACUAGAC [Omei Ex1 A28] (Eterna round: R97, puzzle: Exclusion 1) | 26.6 |  | 24.1 |  |  |  |
